Experimental data from US20240150462A1 (UNIVERSITY HEALTH NETWORK, published 2024).
Changes are numbered by the printed parent chain.

B1: 2G9 (antibody, V domains shown)
VH: EVKLVESGGGLVQPGGSLKLSCAASGFTFSDYYMYWVRQTPEKRLEWVAYISNGGGNTYYPDTVKGRFTISRDNAKNTLYLQMSRLKSEDTAMYYCARNRDDWYFDVWGTGTTVTVSS
VL: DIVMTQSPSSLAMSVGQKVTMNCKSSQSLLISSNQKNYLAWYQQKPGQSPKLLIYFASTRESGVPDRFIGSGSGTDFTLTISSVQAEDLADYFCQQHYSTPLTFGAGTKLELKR
notes: Entries are printed with leader peptide and part of the mouse constant region; also called LILRB2 antibody 2G9
B2: 10D4 (antibody, V domains shown)
VH: QVQLQQSDAELVKPGASVKISCKVSGYTFSDHTFHWMKQRPEQGLEWIGYFYPRDGRSKYNEKFRDKATLTADKSSSTAYMQLNSLTSEDSAVYFCTCDGFDYWGQGTTLTVSS
VL: DIKMTQSPSSMHASLGERVTITCKASQDINSYLSWFQQKPGKSPKTLIYHADRLVDGVPSRFSGSGSGQDYSLTISSLEYEDMGIYYCLQYDEFPYTFGGGTKLEIKR
notes: Entries are printed with leader peptide and part of the mouse constant region; also called LILRB2 antibody 10D4
B3: 8D2 (antibody, V domains shown)
VH: QIQLVQSGPELKKPGETVKISCKASGYTFTTYGMSWVKQAPGKGLKWMGWINTYSGAPAYVDDFKGRFAFSLETSASTAYLQINNLKNEDTATYFCARHFYSGSSYWYFDVWGTGTTVTVSS
VL: DIQMTQSPASLSVSVGETVTITCRASENIYSNLAWYQQKQGKSPQLLVYAATNLADGVPSRFSGSGSGTQYSLKINSLQSEDFGSYYCQHFWGTPRTFGGGTKLEIKR
notes: Entries are printed with leader peptide and part of the mouse constant region; also called LILRB2 antibody 8D2
B4: 1G3 (antibody, V domains shown)
VH: EVQLVESGGDLVKPGGSLKLSCAASGFTFSSYDMSWVRQTPDKRLEWVATISSGGSYTFYPDSVKGRFTISRDNAKNTLSLQMSSLKSEDTAIYYCARWDSNYLRWFFDVWGTGTTVTVSS
VL: DIVLTQSPASLAVSLGQRATISCRASESVDNNGISFMHWYQQKPGQSPKLLIYRASNLESGIPARFSGSGSRTDFTLTINPVETDDVATYYCQQSNDDPFTFGGGTKLEIKR
notes: Entries are printed with leader peptide and part of the mouse constant region; also called LILRB2 antibody 1G3
B5: 10F5 (antibody, V domains shown)
VH: B4 VH with G55A, F59Y, S80Y, N102K, F107Y
VL: B4 VL with Y53S, D97E
notes: Entries are printed with leader peptide and part of the mouse constant region; also called LILRB2 antibody 10F5
B6: 2F10 (antibody, V domains shown)
VH: EVQLQQSGPELVKPGASVKISCKASGYTFTDDYMNWVKQSHGKSLEWIGDINPTNGDTNYNQKFKGKATLTVDKSSSTAYMELRGLTSEDSAVYYCARGSSPFTYWGQGTLVTVSA
VL: DIQMTQTTSSLSASLGDRVTISCSASQGISNYLNWYQQKPDGTVKLLIYYTSSLYSGVPSRFSGSGSGTDYSLTISNLEPEDIATYYCQQYSKLPWTFGGGTKLEIKR
notes: Entries are printed with leader peptide and part of the mouse constant region; also called LILRB2 antibody 2F10
B7: 6B3 (antibody, V domains shown)
VH: B6 VH with Q6E, V12L, V18M, T54N, D57G, N59S, G85S, S101P, P102W, T104A
VL: DIQMTQTTSSLSASLGDRVTINCRASQDIRNYLSWYQQKPDGTVKLLIYYTSRLHSGVPSRFSGSGSGRDYSLTISNLEQEDIATYFCQQSNTLPWTFGGGTKLEITR
notes: Entries are printed with leader peptide and part of the mouse constant region (heavy entry ends within CH1); also called LILRB2 antibody 6B3
B8: 10A8 (antibody, V domains shown)
VH: EVQLVESGGDFVKPGGSLKLSCAASGFTFSSYDMSWVRQTPDKRLEWVATIIRGDSYTYYLDSVKGRFTISRDNAKNTLYLQMSSLKSEDTAMYYCARPSYGNSFDYWGQGTTLTVSS
VL: DIVMTQSHKFMSTSIGDRVSITCKASQDVNNAVAWYQQKPGQSPKLLIYAASYRYTGVPDRFTGSGSGTDFTFTISSVQAEDLAVYHCQQHYGIPWTFGGGTKLEIKR
notes: Entries are printed with leader peptide and part of the mouse constant region; also called LILRB2 antibody 10A8
B9: 3B3 (antibody, V domains shown)
VH: QVQLQQPGAELVKPGASVKMSCKASDYTFTSYWITWVKKRPGQGLEWIGDIYPGSDTTNYNEKFKNKATLTVDTSSSTAHMQLSSLTSEDSAVYYCTRPLYQGISPWFAYWGQGTLVTVSA
VL: NIVMTQSPKSMSMSVGERVTLSCKASENVGTYVSWYQQKPEQSPKLLIYGASNRYTGVPDRFTGSGSATDFTLTISSVQAEDLADYHCGQSYSYPFTFGSGTKLEIKR
notes: Entries are printed with leader peptide and part of the mouse constant region; also called LILRB2 antibody 3B3

target: T1, Recombinant human Fc-tagged extracellular domain of LILRB2 (human, UniProt Q8N423 22-460); assay: SPR, Biacore X100; LILRB2-Fc amine-coupled to CM5 chip, antibody injected at 3.7-300 nM
T1 construct: extracellular domain; Bought from R&D Systems; also called LILRB2-Fc; not shown: Fc tag
T1 sequence (Q8N423 22-460): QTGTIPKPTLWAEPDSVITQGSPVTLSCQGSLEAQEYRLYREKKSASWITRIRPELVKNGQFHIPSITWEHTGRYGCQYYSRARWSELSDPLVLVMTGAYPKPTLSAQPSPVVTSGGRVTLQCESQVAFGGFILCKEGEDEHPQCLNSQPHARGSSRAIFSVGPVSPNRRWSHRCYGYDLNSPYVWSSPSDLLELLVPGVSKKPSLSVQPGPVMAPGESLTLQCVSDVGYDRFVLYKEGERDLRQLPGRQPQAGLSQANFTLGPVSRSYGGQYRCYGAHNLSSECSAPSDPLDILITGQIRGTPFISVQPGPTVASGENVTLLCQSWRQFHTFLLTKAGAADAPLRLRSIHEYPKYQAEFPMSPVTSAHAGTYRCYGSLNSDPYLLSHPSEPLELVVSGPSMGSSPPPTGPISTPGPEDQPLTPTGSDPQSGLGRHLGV
Method: Dissociation constants (Kd) for mouse anti-human LILRB1 and LIRB2 antibodies were determined using a Biacore X100 surface plasmon resonance instrument (Cytivia). Recombinant human Fc-tagged extracellular domains of LILRB1 or LILRB2 (LILRB1-Fc or LILRB2-Fc; R&D Systems) were immobilized on a Biacore CM5 biosensor chip by amine coupling at a density of 40-50 relative units (RU). Purified mouse monoclonal antibodies were injected over the biosensor in a concentration series of 3.7, 11, 33, 100, and 300 nM in HBS-EP buffer (10 mM HEPS pH 7.4, […], 3 mM EDTA, 0.005% v/v Surfactant P20) at a flow rate of 50 μL/min. Regeneration of the chip was achieved by a 30 s injection of 10 mM glycine-HCl, pH 1.7. Affinity parameters were determined by fitting response data using the accompanying Biacore X100 analysis software.

-log(Kd)	Binder
8.33	B1
7.82	B2
8.43	B3
8.05	B4
7.95	B5
8.4	B6
9.02	B7
8.77	B8
8.01	B9
